The results in this text go back to US7846435 (TEIJIN, dated 2010).

Assay [1] deals with VT2, VT2vx1 of E. coli 0157:H7 TK40 (E. coli). Put plainly: cell-based or functional assay.
The target in assay [2] is T1, E. coli Verotoxin II (VT2) (E. coli, UniProt P09385 23-319; P09386 20-89).
T1 sequence 1: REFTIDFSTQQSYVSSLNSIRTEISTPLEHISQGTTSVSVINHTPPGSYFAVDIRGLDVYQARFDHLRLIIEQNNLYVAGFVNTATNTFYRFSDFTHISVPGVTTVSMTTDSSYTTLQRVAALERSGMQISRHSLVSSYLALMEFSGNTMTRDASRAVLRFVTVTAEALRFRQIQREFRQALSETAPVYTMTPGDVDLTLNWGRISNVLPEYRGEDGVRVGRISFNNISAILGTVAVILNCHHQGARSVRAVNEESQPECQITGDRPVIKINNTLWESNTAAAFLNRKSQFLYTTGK
T1 sequence 2: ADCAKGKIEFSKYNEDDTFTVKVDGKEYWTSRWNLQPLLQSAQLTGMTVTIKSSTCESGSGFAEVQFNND

The target of assay [3] is T1, E. coli Verotoxin II (VT2). Kind of assay: BIAcore (SPR).

B1: humanized VTm1.1 antibody (HuVTm1.1) (antibody, V domains shown)
VH: EVQLVESGGGLVQPGGSLRLSCAASGFTFSSYGMSWVRQAPGKGLEWVATISTGGSYTYYPDSVKGRFTISRDNSKNTLYLQMNSLRAEDTAVYYCARRGDAWGNLDYWGQGTLVTVSS
VL: EIVLTQSPATLSVSPGERATLSCRASQTISNNLHWYQQKPGQAPRLLIKSASQSISGIPARFSGSGSGTDFTLTISSLESEDFAVYYCQQSYSWPLTFGQGTKVEIK
As a reminder, the Kd is the constant that tells how readily two partners part at equilibrium. Low values mean a tighter complex, high ones a looser complex. Usually koff stands for a measure of how fast the partners let go of each other. Low readings indicate slow dissociation, high ones fast dissociation. As a reminder, the kon is the rate constant with which the complex forms. A lower kon goes with slower complex formation. For B1, the ED50 (µg/ml), in vitro neutralizing assay in assay [1] worked out at 0.35 µg/mL. Moreover, the “factor of difference in competition compared to the mouse antibody” value in assay [2] is ≤ 2 fold. In assay [3], this molecule gave a Kd of 3.6 nM, a koff of 0.00034 s⁻¹ and a kon of 95000 M⁻¹ s⁻¹.
